Sequences and labels used below:
B1: Zinc finger MYM-type protein 3, residues 589 to 668; numbered along this chain, Q14202 (parent)
chain: LSCHYCHSLFSGKPEVLDWQDQVFQFCCRDCCEDFKRLRGVVSQCEHCRQEKLLHEKLRFSGVEKSFCSEGCVLLYKQDF

± gives the uncertainty stated by the source.

In this series the parent is B1. Description: abundance fitness (aPCA) (normalised: wild type 0, dead -1); higher = more abundant; growth selection in yeast, the domain comes from the species named. As to conditions: Homo sapiens.
Regarding W19F, the abundance fitness came to 0.364 ± 0.059.

With W19L, the abundance fitness was found to be 0.332 ± 0.042.

For the variant W19G, the abundance fitness is 0.105 ± 0.04.

As to W19M, the abundance fitness came to 0.48 ± 0.047.

As for W19A, the abundance fitness turned out to be 0.175 ± 0.044.

In the case of F60T, the abundance fitness is -0.975 ± 0.46.

In the case of F60P, the abundance fitness is 0.113 ± 0.13.

As for F60Q, the abundance fitness is -0.069 ± 0.13.

As for F60S, the abundance fitness amounted to 0.059 ± 0.12.

With S69D, the abundance fitness was -0.702 ± 0.29.

With S69A, the abundance fitness was -0.023 ± 0.16.

Turning to S69W, the abundance fitness was -0.623 ± 0.26.

For K13C, the abundance fitness was -0.117 ± 0.12.

As for K13I, the abundance fitness is -0.098 ± 0.083.

In the case of K13T, the abundance fitness is -0.081 ± 0.064.

Take K13D: the abundance fitness turned out to be 0.019 ± 0.068.

Regarding K13P, the abundance fitness was found to be 0.042 ± 0.059.

As to K52R, the abundance fitness was -0.315 ± 0.1.

On to K52A, for which the abundance fitness was -0.244 ± 0.14.

Regarding K52G, the abundance fitness is -0.07 ± 0.078.

Turning to R37M, the abundance fitness was -0.086 ± 0.22.

R37L: the abundance fitness came out at 0.095 ± 0.06.

Regarding R37P, the abundance fitness is -0.097 ± 0.13.

With Q78R, the abundance fitness amounted to 0.113 ± 0.076.

Turning to Q78G, the abundance fitness was -0.292 ± 0.1.

Regarding Q78H, the abundance fitness came to 0.565 ± 0.25.

For Q78M, the abundance fitness is -0.372 ± 0.26.

For Q78E, the abundance fitness was 0.018 ± 0.17.

On to C68E, for which the abundance fitness is -0.911 ± 0.26.

In the case of K36C, the abundance fitness was -0.294 ± 0.06.

Regarding K36M, the abundance fitness came out at 0.229 ± 0.044.

With K36S, the abundance fitness was -0.048 ± 0.042.

For the variant Y5E, the abundance fitness was -0.081 ± 0.051.

On to Y5F, for which the abundance fitness came out at 0.095 ± 0.051.

In the case of Y5L, the abundance fitness was determined as 0.082 ± 0.039.

For the variant Y5K, the abundance fitness stood at 0.294 ± 0.046.

Take Q20V: the abundance fitness is 0.032 ± 0.049.

Turning to Q20N, the abundance fitness came out at 0.348 ± 0.063.

As to Q20K, the abundance fitness came to 0.456 ± 0.052.

In the case of Q20L, the abundance fitness came to 0.08 ± 0.06.

Turning to H55K, the abundance fitness was -0.04 ± 0.17.

Turning to H55C, the abundance fitness is -0.053 ± 0.14.

For H55P, the abundance fitness amounted to 0.106 ± 0.19.

For the variant H55T, the abundance fitness is 0.431 ± 0.09.

Turning to R49W, the abundance fitness is -0.327 ± 0.27.

Turning to R49Y, the abundance fitness is -0.618 ± 0.39.

For R49T, the abundance fitness was -0.352 ± 0.14.

Take R49V: the abundance fitness was -0.785 ± 0.19.

With V63P, the abundance fitness is -0.198 ± 0.33.

V63K: the abundance fitness was -0.13 ± 0.23.

For Q44A, the abundance fitness stood at 0.702 ± 0.075.

Q44G: the abundance fitness is 0.185 ± 0.075.

For the variant Q44P, the abundance fitness was 0.818 ± 0.099.

As for Q44C, the abundance fitness was 0.397 ± 0.13.

For the variant Q44I, the abundance fitness is 0.547 ± 0.37.

Turning to Q44T, the abundance fitness is 0.959 ± 0.066.

As for F26H, the abundance fitness is -0.666 ± 0.15.

For F26M, the abundance fitness is 0.134 ± 0.051.

Consider F26P, for which the abundance fitness was -0.664 ± 0.071.

As to F26N, the abundance fitness is -0.391 ± 0.1.

For the variant F26W, the abundance fitness is -0.522 ± 0.075.

On to F26C, for which the abundance fitness is -0.444 ± 0.078.

For the variant F26T, the abundance fitness is -0.489 ± 0.062.

Take L1T: the abundance fitness turned out to be 0.098 ± 0.046.

In the case of L1M, the abundance fitness is 0.442 ± 0.06.

With L1P, the abundance fitness is -0.436 ± 0.34.

Turning to L1E, the abundance fitness was 0.082 ± 0.23.

For the variant L1Y, the abundance fitness amounted to 0.047 ± 0.078.

Regarding L1V, the abundance fitness is 0.364 ± 0.051.

Take L1N: the abundance fitness was 0.239 ± 0.11.

R59C: the abundance fitness was 0.514 ± 0.18.

For the variant R59N, the abundance fitness worked out at 0.609 ± 0.27.

On to D21Q, for which the abundance fitness was 0.033 ± 0.055.

Take D21R: the abundance fitness is -0.075 ± 0.044.

As for D21S, the abundance fitness was -0.065 ± 0.045.

As for Q50W, the abundance fitness was -0.582 ± 0.19.

As for Q50P, the abundance fitness was -0.48 ± 0.24.

Consider Q50E, for which the abundance fitness was -0.242 ± 0.11.

With Q50L, the abundance fitness was -0.542 ± 0.16.

In the case of Q50M, the abundance fitness was 0.172 ± 0.5.

As for Q50R, the abundance fitness was 0.01 ± 0.11.

In the case of Q50A, the abundance fitness is -0.641 ± 0.18.

As to Q50T, the abundance fitness is -0.293 ± 0.3.

In the case of P14E, the abundance fitness is -0.309 ± 0.061.

P14H: the abundance fitness is -0.212 ± 0.087.

For P14L, the abundance fitness was -0.523 ± 0.054.

Regarding P14I, the abundance fitness was -0.264 ± 0.097.

As for E46L, the abundance fitness is -0.116 ± 0.09.

Regarding E46D, the abundance fitness was found to be 0.228 ± 0.23.

Take E46S: the abundance fitness came out at 0.385 ± 0.11.

Turning to E46Y, the abundance fitness was -0.354 ± 0.38.

For the variant E46Q, the abundance fitness was 0.281 ± 0.21.

For E46R, the abundance fitness was -0.741 ± 0.16.

As to E33G, the abundance fitness was -0.157 ± 0.04.

Turning to E33N, the abundance fitness is -0.018 ± 0.088.

Regarding E33P, the abundance fitness is -0.811 ± 0.091.

With E33F, the abundance fitness was -0.103 ± 0.11.

In the case of E33R, the abundance fitness is -0.193 ± 0.04.

In the case of L54D, the abundance fitness is -0.589 ± 0.3.

Regarding Q22A, the abundance fitness is 0.26 ± 0.04.

On to Q22T, for which the abundance fitness stood at 0.174 ± 0.044.

For the variant Q22D, the abundance fitness was 0.297 ± 0.048.

On to Q22P, for which the abundance fitness was -0.071 ± 0.05.

In the case of Q22V, the abundance fitness was 0.288 ± 0.045.

For the variant Q22I, the abundance fitness was -0.068 ± 0.11.

With L53Q, the abundance fitness is -0.255 ± 0.22.

Regarding L53P, the abundance fitness is -0.091 ± 0.22.

With L53E, the abundance fitness was found to be 0.064 ± 0.14.

Turning to L53S, the abundance fitness was -0.154 ± 0.13.

On to L53K, for which the abundance fitness amounted to 0.187 ± 0.34.

Regarding L38W, the abundance fitness came out at 0.243 ± 0.073.

For L38V, the abundance fitness was determined as 0.013 ± 0.059.

As for L38R, the abundance fitness amounted to 0.087 ± 0.053.

In the case of E64L, the abundance fitness is -0.633 ± 0.25.

Regarding E64V, the abundance fitness is -0.359 ± 0.3.

Regarding E64M, the abundance fitness was -0.316 ± 0.18.

For the variant E64I, the abundance fitness was -0.344 ± 0.46.

As to E64G, the abundance fitness was -0.48 ± 0.21.

As for G71R, the abundance fitness turned out to be 0.501 ± 0.073.

On to G71A, for which the abundance fitness turned out to be 0.156 ± 0.087.

With G71I, the abundance fitness came to 0.317 ± 0.42.

Take G71D: the abundance fitness worked out at 0.351 ± 0.28.

As to E56Y, the abundance fitness is -0.01 ± 0.5.

Regarding E56F, the abundance fitness is 0.467 ± 0.23.

E70I: the abundance fitness turned out to be 0.781 ± 0.38.

Take E70V: the abundance fitness is -0.066 ± 0.12.

In the case of E70Q, the abundance fitness was 0.199 ± 0.14.

Turning to E70G, the abundance fitness is -0.116 ± 0.12.

Turning to E70P, the abundance fitness turned out to be 0.069 ± 0.21.

On to F80G, for which the abundance fitness was determined as 0.033 ± 0.14.

For the variant F80C, the abundance fitness is 0.093 ± 0.2.

For the variant F80V, the abundance fitness came out at 0.281 ± 0.094.

As to F80T, the abundance fitness came out at 0.652 ± 0.24.

On to D18Q, for which the abundance fitness amounted to 0.067 ± 0.056.

As to D18F, the abundance fitness was -0.101 ± 0.12.

As to D18H, the abundance fitness was -0.08 ± 0.15.

As for V73D, the abundance fitness was -0.521 ± 0.24.

For V73W, the abundance fitness was -0.167 ± 0.18.

For the variant V73Q, the abundance fitness was -0.309 ± 0.2.

For V73G, the abundance fitness was -0.188 ± 0.11.

V73T: the abundance fitness is -0.167 ± 0.19.

On to C28M, for which the abundance fitness was 0.129 ± 0.046.

As for C28E, the abundance fitness was -0.228 ± 0.063.

C28Q: the abundance fitness worked out at 0.087 ± 0.046.

For the variant C28F, the abundance fitness is -0.83 ± 0.12.

Take C28Y: the abundance fitness was -0.557 ± 0.15.

For the variant C28D, the abundance fitness came to 0.041 ± 0.062.

For the variant F35S, the abundance fitness is -0.411 ± 0.055.

In the case of F35L, the abundance fitness is -0.641 ± 0.055.

On to C45S, for which the abundance fitness was -0.942 ± 0.17.

In the case of C45F, the abundance fitness is -0.356 ± 0.26.

C45L: the abundance fitness is -0.867 ± 0.19.

Regarding R29C, the abundance fitness turned out to be 0.08 ± 0.05.

R29M: the abundance fitness is 0.235 ± 0.05.

Consider R29T, for which the abundance fitness was -0.002 ± 0.046.

Take R29Y: the abundance fitness was determined as 0.26 ± 0.069.

Regarding R29F, the abundance fitness was found to be 0.095 ± 0.056.

As for D30K, the abundance fitness worked out at 0.104 ± 0.062.

Take D30S: the abundance fitness turned out to be 0.055 ± 0.043.

For the variant D30C, the abundance fitness came to 0.008 ± 0.053.

Regarding G12V, the abundance fitness is -0.267 ± 0.043.

Consider G12E, for which the abundance fitness was 0.034 ± 0.046.

For the variant G12N, the abundance fitness was -0.187 ± 0.087.

Take G12H: the abundance fitness is -0.15 ± 0.069.

On to S43D, for which the abundance fitness is -0.235 ± 0.23.

S43R: the abundance fitness is -0.174 ± 0.1.

In the case of S43C, the abundance fitness was -0.062 ± 0.16.

These data come from the Human Domainome abundance scans (Beltran et al. 2025).
